Experimental data as given in article PMC6349933.

Columns and labels:
Assay in all cases: FRET or BRET; acceptor photobleaching FRET between ECFP and EYFP fusions in tobacco leaf epidermis; YFP bleached with a 514 nm laser; E = 100(A − B)/B
EYFP-ROP11 (Arabidopsis) = EYFP-ROP11 (Arabidopsis) (UniProt O82481)
[1] = target: EYFP-ROP11G17V (Arabidopsis) (UniProt O82481)
[2] = target: EYFP-ROP11T22N (Arabidopsis) (UniProt O82481)
[3] = target: BDR1-ECFP (Arabidopsis thaliana)
Sequence of BDR1-ECFP (Arabidopsis thaliana) (main, as listed by the source): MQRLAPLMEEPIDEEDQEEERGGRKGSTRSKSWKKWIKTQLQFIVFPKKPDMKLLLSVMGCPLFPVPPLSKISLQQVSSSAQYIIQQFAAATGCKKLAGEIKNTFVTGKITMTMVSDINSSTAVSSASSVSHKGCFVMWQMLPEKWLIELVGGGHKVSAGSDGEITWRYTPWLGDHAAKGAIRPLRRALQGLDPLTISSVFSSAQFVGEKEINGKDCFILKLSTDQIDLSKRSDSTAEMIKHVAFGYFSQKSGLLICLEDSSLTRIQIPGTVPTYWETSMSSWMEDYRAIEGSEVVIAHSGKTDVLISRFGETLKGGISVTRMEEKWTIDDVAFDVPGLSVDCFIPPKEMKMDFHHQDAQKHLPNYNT

Substance | FRET efficiency (EYFP-ROP11 (Arabidopsis)) [%] | FRET efficiency [1] [%] | FRET efficiency [2] [%] | FRET efficiency [3] [%]
BDR1-ECFP (natural protein) | > 10 | > 10 | 0 | –
EYFP-WAL (natural protein) | – | – | – | 15
